The target in test [1] is T1, recombinant human IL-17 (human, UniProt Q16552).
T1 sequence: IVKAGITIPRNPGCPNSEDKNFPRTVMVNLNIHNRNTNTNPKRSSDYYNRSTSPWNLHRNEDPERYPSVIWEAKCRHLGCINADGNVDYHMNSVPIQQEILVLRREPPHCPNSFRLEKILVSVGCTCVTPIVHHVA
Kind of test: SPR, BIAcore 3000, antibody captured, antigen injected. (Surface plasmon resonance follows binding to a sensor surface in real time, without labels.)

Test [2] concerns the target T1, recombinant human IL-17.
The target of test [3] is T1, recombinant human IL-17. The test is described as follows: SPR, BIAcore 3000, antibody captured by anti-human IgG, antigen injected.

Drawing on patent US11680110B2, “Three-dimensional structure-based humanization method” (Hoffmann-La Roche Inc., dated 2023), this text covers Kd and Neutralization in NHDF, IL-6 IC50 for two molecules.

The term Kd denotes the equilibrium constant for the complex coming apart.

B1: murine anti-IL17 antibody (antibody, V domains shown)
VH: QVQLKESGPGLVAPSQSLSITCTVSGFSLDSYGVHWVRQPPGKGLEWLVVIWSDGTTTYNSALKSRLSITKDNSKSQVFLKMNSLQTDDTAIYYCARDTHYRLYYYAMDYWGQGTSVTVSS
VL: DVVMTQTPLSLPVSLGDQASISCRSSQSLVHSNGDTYFHWYLQKPGQSPKLLIYKVSNRFSGVPDRFSGSGSGTDFTLKINRVEAEDLGVYFCSQTTHAPFTFGSGTKLEIK
Take B1: the Kd with recombinant human IL-17 [1] came to 0.05 nM. Moreover, the Neutralization in NHDF, IL-6 IC50 with recombinant human IL-17 [2] is 0.21 nM.

B2: chimeric anti-IL17 antibody (antibody, V domains shown)
VH: B1 VH
VL: B1 VL
As to B2, in the test with recombinant human IL-17 [3], the Kd stood at 0.03 nM.
